Data on one substance can be found in article PMC4772073.

This assay has as its target dUltramarine2. Kind of assay: SEC; gel filtration chromatography; conditions not given in the main text (Supplementary Fig. 7). In general terms: In gel filtration, larger molecules generally elute earlier.

For orientation: stoichiometry N means the number of molecules, sites or subunits per partner or assembly. As for dUltramarine2, the stoichiometry N amounted to 2.
